Results published in paper PMC11969024 (2025).

B1: peptide HD2 (from tick evasin EVA4) / CCL18 (biotinylated, synthetic) (parent complex)
chain 1: EEDDYTAYAPLTCYFT
chain 2: AQVGTNKELCCLVYTSWQIPQKFIVDYSETSPQCPKPGVILLTKRGRQICADPNKKWVQKYISDLKLNA
B2: peptide HD2 (from tick evasin EVA4) / CCL8 (biotinylated, synthetic) (parent complex)
chain 1: EEDDYTAYAPLTCYFT
chain 2: QPDSVSIPITCCFNVINRKIPIQRLESYTRITNIQCPKEAVIFKTKRGKEVCADPKERWVRDSMKHLDQIFQNLKP

Variants of: B1

Row | Variant | enrichment
1 | chain 1 Y14R | -6.83 log2 (difference from the parental peptide)
2 | chain 1 T6Q | 1.41 log2 (difference from the parental peptide)
3 | chain 1 D4M | -1.48 log2 (difference from the parental peptide)

Variants of: B2

Row | Variant | enrichment
4 | chain 1 Y8M | -6.01 log2 (difference from the parental peptide)
5 | chain 1 T6K | -1.83 log2 (difference from the parental peptide)
6 | chain 1 T16A | 1.43 log2 (difference from the parental peptide)
7 | chain 1 Y14N | 0.255 log2 (difference from the parental peptide)
8 | chain 1 T16H | 0.233 log2 (difference from the parental peptide)
9 | chain 1 P10N | -7.54 log2 (difference from the parental peptide)
10 | chain 1 D3E | 0.904 log2 (difference from the parental peptide)
11 | chain 1 E1I | -1.02 log2 (difference from the parental peptide)
12 | chain 1 A9M | -1.3 log2 (difference from the parental peptide)
13 | chain 1 E1W | -2.25 log2 (difference from the parental peptide)
14 | chain 1 Y5W | -0.0149 log2 (difference from the parental peptide)
15 | chain 1 F15E | 1.9 log2 (difference from the parental peptide)
16 | chain 1 F15R | 1.7 log2 (difference from the parental peptide)
17 | chain 1 A9V | -3.26 log2 (difference from the parental peptide)
18 | chain 1 Y14C | -2.25 log2 (difference from the parental peptide)
19 | chain 1 Y5I | -2.45 log2 (difference from the parental peptide)
20 | chain 1 Y8L | -7.29 log2 (difference from the parental peptide)
21 | chain 1 F15I | 1.54 log2 (difference from the parental peptide)
22 | chain 1 Y14P | -2.37 log2 (difference from the parental peptide)
23 | chain 1 T12K | -0.15 log2 (difference from the parental peptide)
24 | chain 1 A7N | 1.02 log2 (difference from the parental peptide)
25 | chain 1 A9T | -0.868 log2 (difference from the parental peptide)
26 | chain 1 Y14M | 1.03 log2 (difference from the parental peptide)
27 | chain 1 Y5E | -1.42 log2 (difference from the parental peptide)
28 | chain 1 C13F | -0.473 log2 (difference from the parental peptide)

Row | Variant | enrichment
29 | chain 1 F15K | 2.15 log2 (difference from the parental peptide)
30 | chain 1 C13L | -1.06 log2 (difference from the parental peptide)
31 | chain 1 C13A | -2.32 log2 (difference from the parental peptide)
32 | chain 1 Y14I | 1.29 log2 (difference from the parental peptide)
33 | chain 1 E1H | -1.32 log2 (difference from the parental peptide)
34 | chain 1 T6R | -0.801 log2 (difference from the parental peptide)
35 | chain 1 D4W | -3.2 log2 (difference from the parental peptide)
36 | chain 1 T6D | 2.7 log2 (difference from the parental peptide)
37 | chain 1 F15T | 2.65 log2 (difference from the parental peptide)
38 | chain 1 T16P | 1.42 log2 (difference from the parental peptide)
39 | chain 1 A7H | -0.321 log2 (difference from the parental peptide)
40 | chain 1 L11K | 1.95 log2 (difference from the parental peptide)
41 | chain 1 T12N | 0.576 log2 (difference from the parental peptide)
42 | chain 1 D4Y | -2.68 log2 (difference from the parental peptide)
43 | chain 1 A7F | -0.605 log2 (difference from the parental peptide)
44 | chain 1 A9S | 0.31 log2 (difference from the parental peptide)
45 | chain 1 Y8R | -6.7 log2 (difference from the parental peptide)
46 | chain 1 A7R | -0.287 log2 (difference from the parental peptide)
47 | chain 1 T16I | 0.743 log2 (difference from the parental peptide)
48 | chain 1 T12S | 0.405 log2 (difference from the parental peptide)
49 | chain 1 E2Q | -2.83 log2 (difference from the parental peptide)
50 | chain 1 T6E | 2.76 log2 (difference from the parental peptide)
51 | chain 1 P10T | -7.38 log2 (difference from the parental peptide)
52 | chain 1 A9G | -0.437 log2 (difference from the parental peptide)
53 | chain 1 E2R | -3.19 log2 (difference from the parental peptide)

Row | Variant | enrichment
54 | chain 1 Y14W | 0.518 log2 (difference from the parental peptide)
55 | chain 1 T12R | 0.0146 log2 (difference from the parental peptide)
56 | chain 1 D4Q | -1.83 log2 (difference from the parental peptide)
57 | chain 1 A7G | 0.697 log2 (difference from the parental peptide)
58 | chain 1 A9Y | -4.23 log2 (difference from the parental peptide)
59 | chain 1 P10E | -7.42 log2 (difference from the parental peptide)
60 | chain 1 A9K | -1.29 log2 (difference from the parental peptide)
61 | chain 1 T12C | -5.83 log2 (difference from the parental peptide)
62 | chain 1 A7L | 0.505 log2 (difference from the parental peptide)
63 | chain 1 F15A | 2.51 log2 (difference from the parental peptide)
64 | chain 1 T6H | -0.816 log2 (difference from the parental peptide)
65 | chain 1 Y5V | -3.14 log2 (difference from the parental peptide)
66 | chain 1 Y5F | -0.0383 log2 (difference from the parental peptide)
67 | chain 1 Y5T | -4.38 log2 (difference from the parental peptide)
68 | chain 1 F15M | 2.61 log2 (difference from the parental peptide)
69 | chain 1 Y14A | -0.507 log2 (difference from the parental peptide)
70 | chain 1 D4I | -3.36 log2 (difference from the parental peptide)
71 | chain 1 T12W | -1.55 log2 (difference from the parental peptide)
72 | chain 1 Y8T | -8 log2 (difference from the parental peptide)
73 | chain 1 E1M | -0.394 log2 (difference from the parental peptide)
74 | chain 1 E1S | -0.455 log2 (difference from the parental peptide)
75 | chain 1 L11C | 1.32 log2 (difference from the parental peptide)
76 | chain 1 F15D | 0.871 log2 (difference from the parental peptide)
77 | chain 1 Y8C | -9.2 log2 (difference from the parental peptide)
78 | chain 1 C13I | -0.427 log2 (difference from the parental peptide)

Row | Variant | enrichment
79 | chain 1 Y5N | -4.9 log2 (difference from the parental peptide)
80 | chain 1 T6W | -0.802 log2 (difference from the parental peptide)
81 | chain 1 P10W | -8.37 log2 (difference from the parental peptide)
82 | chain 1 D3S | -2.23 log2 (difference from the parental peptide)
83 | chain 1 C13G | -1.56 log2 (difference from the parental peptide)
84 | chain 1 E2N | -1.75 log2 (difference from the parental peptide)
85 | chain 1 A9Q | 0.272 log2 (difference from the parental peptide)
86 | chain 1 E1T | -1.11 log2 (difference from the parental peptide)
87 | chain 1 Y5D | -3.76 log2 (difference from the parental peptide)
88 | chain 1 E1N | -0.349 log2 (difference from the parental peptide)
89 | chain 1 Y5P | -6.25 log2 (difference from the parental peptide)
90 | chain 1 F15G | 0.793 log2 (difference from the parental peptide)
91 | chain 1 Y14L | 0.559 log2 (difference from the parental peptide)
92 | chain 1 T12Y | -0.212 log2 (difference from the parental peptide)
93 | chain 1 T16R | 0.603 log2 (difference from the parental peptide)
94 | chain 1 A9C | -9.61 log2 (difference from the parental peptide)
95 | chain 1 L11R | 1.57 log2 (difference from the parental peptide)
96 | chain 1 T12E | -0.507 log2 (difference from the parental peptide)
97 | chain 1 T6F | -4.21 log2 (difference from the parental peptide)
98 | chain 1 A7T | 0.325 log2 (difference from the parental peptide)
99 | chain 1 E1K | -2.59 log2 (difference from the parental peptide)
100 | chain 1 T16F | 0.115 log2 (difference from the parental peptide)
101 | chain 1 T16L | 0.738 log2 (difference from the parental peptide)
102 | chain 1 P10S | -8.71 log2 (difference from the parental peptide)
103 | chain 1 F15Q | 2.57 log2 (difference from the parental peptide)

Row | Variant | enrichment
104 | chain 1 T16S | 1.37 log2 (difference from the parental peptide)
105 | chain 1 T6Y | -0.847 log2 (difference from the parental peptide)
106 | chain 1 T6G | 2.04 log2 (difference from the parental peptide)
107 | chain 1 D3T | -3.23 log2 (difference from the parental peptide)
108 | chain 1 E2K | -2.67 log2 (difference from the parental peptide)
109 | chain 1 L11D | -2.06 log2 (difference from the parental peptide)
110 | chain 1 L11A | 0.754 log2 (difference from the parental peptide)
111 | chain 1 A7Q | 0.712 log2 (difference from the parental peptide)
112 | chain 1 D4M | -3.9 log2 (difference from the parental peptide)
113 | chain 1 T6L | -2.32 log2 (difference from the parental peptide)
114 | chain 1 C13E | -4.45 log2 (difference from the parental peptide)
115 | chain 1 T16Q | 1.96 log2 (difference from the parental peptide)
116 | chain 1 Y8V | -4.32 log2 (difference from the parental peptide)
117 | chain 1 E2W | -1.39 log2 (difference from the parental peptide)
118 | chain 1 C13Y | -0.338 log2 (difference from the parental peptide)
119 | chain 1 F15L | 1.43 log2 (difference from the parental peptide)
120 | chain 1 E1F | -2.08 log2 (difference from the parental peptide)
121 | chain 1 Y8I | -8.9 log2 (difference from the parental peptide)
122 | chain 1 A7Y | -0.0899 log2 (difference from the parental peptide)
123 | chain 1 D3R | -4.97 log2 (difference from the parental peptide)
124 | chain 1 T12L | 0.285 log2 (difference from the parental peptide)
125 | chain 1 A7C | -9.36 log2 (difference from the parental peptide)
126 | chain 1 T16E | 1.25 log2 (difference from the parental peptide)
127 | chain 1 D3H | -2.58 log2 (difference from the parental peptide)
128 | chain 1 D3K | -4.88 log2 (difference from the parental peptide)

Row | Variant | enrichment
129 | chain 1 T16M | 0.502 log2 (difference from the parental peptide)
130 | chain 1 T12Q | 0.904 log2 (difference from the parental peptide)
131 | chain 1 Y14H | 1.41 log2 (difference from the parental peptide)
132 | chain 1 T16V | 0.537 log2 (difference from the parental peptide)
133 | chain 1 E2M | -2.24 log2 (difference from the parental peptide)
134 | chain 1 A9H | -2.52 log2 (difference from the parental peptide)
135 | chain 1 C13M | -0.513 log2 (difference from the parental peptide)
136 | chain 1 T6P | -1.36 log2 (difference from the parental peptide)
137 | chain 1 T12F | -1.18 log2 (difference from the parental peptide)
138 | chain 1 E1P | -0.418 log2 (difference from the parental peptide)
139 | chain 1 E1D | 1.88 log2 (difference from the parental peptide)
140 | chain 1 A9F | -4.42 log2 (difference from the parental peptide)
141 | chain 1 D3N | -1.8 log2 (difference from the parental peptide)
142 | chain 1 A7V | -0.376 log2 (difference from the parental peptide)
143 | chain 1 F15S | 1.91 log2 (difference from the parental peptide)
144 | chain 1 L11G | -1.12 log2 (difference from the parental peptide)
145 | chain 1 D4T | -2.87 log2 (difference from the parental peptide)
146 | chain 1 Y14G | -2.18 log2 (difference from the parental peptide)
147 | chain 1 A9L | -3.92 log2 (difference from the parental peptide)
148 | chain 1 Y14F | 0.904 log2 (difference from the parental peptide)
149 | chain 1 D3G | -2.58 log2 (difference from the parental peptide)
150 | chain 1 T12G | -3.67 log2 (difference from the parental peptide)
